{
  "source": "paper PMC4424349",
  "about": "“The Plasmodium Class XIV Myosin, MyoB, Has a Distinct Subcellular Location in Invasive and Motile Stages of the Malaria Parasite and an Unusual Light Chain*” (The Journal of Biological Chemistry, 2015)",
  "proteins": {"B1": {"name": "Myosin B peptide Asn780 to His800 (peptide)", "peptide": "Ac-NIKNLQLAQAYFRKYKYIKEH-NH2", "notes": "Myosin B (MyoB), Plasmodium falciparum, residues 780-800; also called Asn780 to His800 peptide; peptide from the extreme C terminus of MyoB; source: synthetic peptide"}},
  "target": "T1, PfMLC-B C-terminal domain (MLC-B CTD), residues 497-652 (Plasmodium falciparum, UniProt Q8III1 497-652)",
  "T1 construct": "Myosin light chain B (MLC-B), Plasmodium falciparum 3D7, PlasmoDB PF3D7_1118700; C-terminal 156 amino acids, residues 497-652 (3' 471 bp of mlc-b cDNA, primers 27 and 28); Cloned into BamHI/XhoI of pGEX6P1; a few vector residues may remain after PreScission cleavage; also called PfMLC-B CTD; calmodulin-like C-terminal domain; source: E. coli BL21 Gold, purified (glutathione-Sepharose, PreScission …)",
  "T1 sequence": "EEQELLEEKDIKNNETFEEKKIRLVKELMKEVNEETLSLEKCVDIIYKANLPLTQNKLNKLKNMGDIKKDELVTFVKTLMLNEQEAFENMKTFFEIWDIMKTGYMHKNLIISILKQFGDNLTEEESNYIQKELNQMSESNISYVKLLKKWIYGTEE",
  "assay": "thermal unfolding monitored by CD at 222 nm; MLC-B CTD alone or with 1.5- or 3-fold molar excess of peptide; heating 1 °C/min, 20-90 °C",
  "conditions": "both partners purified",
  "data": [
    {"protein": "B1", "values": [
      {"measurement": "Tm of MLC-B CTD with a 1.5-fold molar excess of the peptide (59 °C without peptide)", "result": 67, "unit": "°C"},
      {"measurement": "Tm of MLC-B CTD with a 3-fold molar excess of the peptide (59 °C without peptide)", "result": 70, "unit": "°C"}
    ]}
  ]
}
